B1: 1.1.26-1 (antibody, human IgG1, kappa)
heavy: QVQLLQSGAAVTKPGASVRVSCEASGYNIRDYFIHWWRQAPGQGLQWVGWINPKTGQPNNPRQFQGRVSLTRHASWDFDTFSFYMDLKALRSDDTAVYFCARQRSDYWDFDVWGSGTQVTVSSASTKGPSVFPLAPSSKSTSGGTAALGCLVKDYFPEPVTVSWNSGALTSGVHTFPAVLQSSGLYSLSSVVTVPSSSLGTQTYICNVNHKPSNTKVDKKVEPKSCDKTHTCPPCPAPELLAGPDVFLFPPKPKDTLMISRTPEVTCVVVDVSHEDPEVKFNWYVDGVEVHNAKTKPREEQYNSTYRVVSVLTVLHQDWLNGKEYKCKVSNKALPLPEEKTISKAKGQPREPQVYTLPPSREEMTKNQVSLTCLVKGFYPSDIAVEWESNGQPENNYKTTPPVLDSDGSFFLYSKLTVDKSRWQQGNVFSCSVLHEALHSHYTQKSLSLSPGK
light: DIQMTQSPSSLSASVGDTVTITCQANGYLNWYQQRRGKAPKLLIYDGSKLERGVPSRFSGRRWGQEYNLTINNLQPEDIATYFCQVYEFVVPGTRLDIKRTVAAPSVFIFPPSDEQLKSGTASVVCLLNNFYPREAKVQWKVDNALQSGNSQESVTEQDSKDSTYSLSSTLTLSKADYEKHKVYACEVTHQGLSSPVTKSFNRGEC
B2: 1.1.32-1 (antibody, human IgG1, kappa)
heavy: B1 heavy
light: B1 light with N68T, N72S, N73S, V91T, I98L
B3: 1.1.34-1 (antibody, human IgG1, kappa)
heavy: B1 heavy
light: B1 light with K49N, N68T, N72S, N73S, V91T
B4: 1.1.33-1 (antibody, human IgG1, kappa)
heavy: B1 heavy
light: B1 light with K49N, N68T, N72S, N73S, R95N
B5: 1.1.28-1 (antibody, human IgG1, kappa)
heavy: B1 heavy
light: B1 light with R95N, L96V
B6: 1.1.31-1 (antibody, human IgG1, kappa)
heavy: B1 heavy
light: B1 light with N68T, N72S, N73S, R95N, I98L
B7: 1.1.27-1 (antibody, human IgG1, kappa)
heavy: B1 heavy
light: B1 light with L96V
B8: 1.1.30-1 (antibody, human IgG1, kappa)
heavy: B1 heavy
light: B1 light with V91T, R95N, L96V
B9: 1.1.29-1 (antibody, human IgG1, kappa)
heavy: B1 heavy
light: B1 light with V91G, R95N, L96V

The record followed here is patent US20240034774A1 (Gilead, published 2024).

Residue numbers refer to the chain shown, from its start.

The target in the first test is gp120 SHIV SF162 P3 (SHIV SF162 P3). The test is described as follows: single-point ELISA at EC50 conc. of A-1.
As for B1, the “ELISA A450” value stood at 1.09 A450.
B2: the “ELISA A450” value amounted to 0.89 A450.
The same measure, in the same setting: the value for B3 was 0.83 A450; that for B4 was 0.84 A450; that for B5 was 1.09 A450.
For B6, the “ELISA A450” value worked out at 0.87 A450.
On the same count and under the same terms, with B7 the figure was 1.1 A450.
Still for that read-out and setting: the value for B8 was 0.98 A450; that for B9 was 0.9 A450.

The target of a further test is gp120 Bal (HIV (Bal)). The test is described as follows: single-point ELISA at EC50 conc. of A-1.
Turning to B1, the “ELISA A450” value amounted to 0.96 A450.
On the same count and under the same terms, the value for B2 was 0.93 A450.
Same read-out and setting: with B3 the figure was 0.9 A450; with B4, 0.87 A450; with B5, 0.98 A450.
Still for that read-out and setting: with B6 the figure was 0.87 A450; with B7, 0.97 A450; with B8, 0.9 A450.
Turning to B9, the “ELISA A450” value worked out at 0.91 A450.

In another test the target is gp120 CAAN (HIV (CAAN)). Briefly: single-point ELISA at EC50 conc. of A-1.
Consider B1, for which the “ELISA A450” value was determined as 1.07 A450.
Consider B2, for which the “ELISA A450” value is 1.04 A450.
Regarding B3, the “ELISA A450” value is 0.96 A450.
On the same count and under the same terms, the value for B4 was 0.94 A450; that for B5 was 0.93 A450; that for B6 was 0.96 A450.
Still for that read-out and setting: with B7 the figure was 0.99 A450; with B8, 0.86 A450.
On the same count and under the same terms, the value for B9 was 1.01 A450.

The target in another test is BSA (UniProt P02769 25-607). Briefly: single-point ELISA, BSA control.
As for B1, the “ELISA A450” value was 0.06 A450.
On the same count and under the same terms, the value for B2 was 0.06 A450; that for B3 was 0.06 A450; that for B4 was 0.07 A450.
As to B5, the “ELISA A450” value turned out to be 0.06 A450.
Take B6: the “ELISA A450” value turned out to be 0.06 A450.
Still for that read-out and setting: with B7 the figure was 0.06 A450; with B8, 0.06 A450; with B9, 0.06 A450.
